Test results taken from US20260234276A1 (DOMAIN THERAPEUTICS, published 2026).
Values joined by “and” are separate entries in the source; they are usually repeats but may differ in a detail not shown here. Equal values may be shown once. One block for each binder: values may come before it.

Columns and labels:
human CCR8 [1] = target: T1, human CCR8 (human, UniProt P51685 1-355); test: cell-based or functional assay
human CCR8 [2] = target: T1, human CCR8; test: cell-based or functional assay; remark: listed apart in the source
CCR8 SNAP-tag = CCR8 SNAP-tag (human, UniProt P51685 1-355, SNAP-tag labelled with Lumi4-Terbium); test: cell-based or functional assay
pm4 [3] = target: T2, pm4 (human, sulfated tyrosine(s) among Tyr 15, Tyr 16, Tyr 17; marked only by underlining, lost in the text); test: ELISA on coated peptide
T2 sequence (peptide, as listed by the source): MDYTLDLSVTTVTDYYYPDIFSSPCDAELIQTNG
Experimental: (§1) The specific binding properties of antibodies were evaluated by ELISA with coated CCR8 related peptides (500 ng/mL) in carbonate/bicarbonate buffer. Different peptides were used as described in Table 1 (see Example 1). Each anti-CCR8 mAb was tested at 1 μg/mL then diluted at 1/10. After an incubation at room temperature during 90 min, unbound mAbs were removed by washings. […] After washings, 3,3′,5,5′-tetramethylbenzidine (TMB) (Interchim, Montlugon, France) was added for 15 min. Then the optical density (OD) was determined by using a multiplate reader (Tecan, Lyon, France) and correlated with mAb reactivity on the panel of coated peptides.

pm1 [4] = target: T3, pm1 (human, sulfated tyrosine(s) among Tyr 15, Tyr 16, Tyr 17; marked only by underlining, lost in the text); test: ELISA on coated peptide
T3 sequence (peptide, as listed by the source): as above
Experimental: as §1

pm5 = pm5 (human, sulfated tyrosines at Y15 and Y17); test: ELISA on coated peptide [cont.]
Sequence of pm5 (human, sulfated tyrosines at Y15 and Y17) (peptide, as listed by the source): as above
In short: (§2)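 Anti-CCR8 mAbs tested at 1 μg/mL and then diluted 1/10 on CCR8-related peptides coated at 500 ng/mL in carbonate/bicarbonate buffer, 90 min at room temperature. Bound antibody developed with TMB for 15 min; optical density read as mAb reactivity.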

pm6 = pm6 (human, sulfated tyrosines at Y16 and Y17); test: ELISA on coated peptide [cont.]
Sequence of pm6 (human, sulfated tyrosines at Y16 and Y17) (peptide, as listed by the source): as above
In short: as §2

pm8 = pm8 (human, sulfated tyrosines at Y15, Y16 and Y17); test: ELISA on coated peptide [cont.]
Sequence of pm8 (human, sulfated tyrosines at Y15, Y16 and Y17) (peptide, as listed by the source): as above
In short: as §2

pm3 = pm3 (human, sulfated tyrosine at Y17); test: ELISA on coated peptide [cont.]
Sequence of pm3 (human, sulfated tyrosine at Y17) (peptide, as listed by the source): as above
In short: as §2

human CCR8 [5] = target: T1, human CCR8; test: flow cytometry, human activated T cells
Experimental: (§3) Briefly, 1·10⁵ cells per well in a 96 well plate were incubated with a dilution of unconjugated anti-CCR8 mAb at 10 μg/mL then diluted at 1/3.33, 4 dilution points (during 30 min at 4° C.). […] To determine EC50 value, 8 concentrations of anti-CCR8 mAb were tested. Unbound antibodies were washed away with PBS (Invitrogen by Thermofisher Scientific, Illkirch-Graffenstaden, France) supplemented by 2% Fetal Bovine Serum (Invitrogen by Thermofisher Scientific, Illkirch-Graffenstaden, France) and 2 mM EDTA (Invitrogen by Thermofisher Scientific, Illkirch-Graffenstaden, France). Subsequently, cells are centrifuged (5 min at 400 g) and bound antibody is detected with F(ab′)₂-Goat anti-Mouse IgG (H+L) Cross-Adsorbed Secondary Antibody, Alexa Fluor 488 (dilution 1/500) (Invitrogen by Thermofisher Scientific, Illkirch-Graffenstaden, France) or with F(ab′)₂-Goat anti-Human IgG Fc Secondary Antibody, PE (Invitrogen by Thermofisher Scientific, Illkirch-Graffenstaden, France) (dilution 1/1000) at 4° C. for 30 min. Detection reagent is washed away and cells are centrifuged (5 min at 400 g) and resuspended in 30 μL PBS. Bound detection antibody is quantified on a MacsQuant16 (Miltenyi, Gladbach, Germany) (B1 or B2 channel, 5000 events per acquisition).
(§4) Binding characteristics of anti-CCR8 mAb cellular reactivity was further investigated by testing their binding to activated T cells.

human CCR8 [6] = target: T1, human CCR8; test: flow cytometry, HUT78 cells (native CCR8)
Experimental: The same staining protocol was applied on human CCR8 transfected CHO cell line versus wild type CHO cell line, cutaneous T cell lymphoma HUT78 cell line and human activated T cell model.
as §3

human CCR8 [7] = target: T1, human CCR8; test: flow cytometry, human activated T cells pre-incubated with 200 nM hCCL1
Experimental: as §3, §4

human CCR8 [8] = target: T1, human CCR8; test: competition HTRF on HEK-293 cells with hCCR8; blocked ligand CCL1-AF647 [cont.]
human CCR8 [9] = target: T1, human CCR8; test: cell-based or functional assay; remark: listed apart in the source
human CCR8 [10] = target: T1, human CCR8; test: flow cytometry, hCCR8 transfected CHOK1 cells
human CCR8 [11] = target: T1, human CCR8; test: competition flow cytometry on hCCR8 transfected CHO cells; blocked ligand CCL1-AF647 [cont.]
human CCR8 [12] = target: T1, human CCR8; test: cell-based or functional assay; remark: listed apart in the source
pm4 [13] = target: T2, pm4; test: ELISA on coated peptide [cont.]
In short: as §2

pwt1 = target: T4, pwt1 (human); test: ELISA on coated peptide [cont.]
T4 construct: also called unmodified peptide
T4 sequence (peptide, as listed by the source): as above
In short: as §2

pm1 [14] = target: T3, pm1; test: ELISA on coated peptide [cont.]
In short: as §2

pm2 = pm2 (human, sulfated tyrosine(s) among Tyr 15, Tyr 16, Tyr 17; marked only by underlining, lost in the text); test: ELISA on coated peptide [cont.]
Sequence of pm2 (human, sulfated tyrosine(s) among Tyr 15, Tyr 16, Tyr 17; marked only by underlining, lost in the text) (peptide, as listed by the source): as above
In short: as §2

human CCR8 [15] = target: T1, human CCR8; test: competition flow cytometry on hCCR8 transfected CHO cells; blocked ligand CCL1-AF647

B2: 3-46 (antibody, V domains shown)
VH: EVQLVETGGGLVQPKGSLKLSCAASGFTFNTNAMNWVRQAPGKGLEWVARIRSKSNYYATYYADSVKDRFTISRDDSQSMLYLQMNNLKTEDTAMYYCVRGREMGNYYSMDYWGQGTSVTVSS
VL: DIVMTQAAPSVPVTPGESVSISCRSSKSLLHSNGNTYLYWFLQRPGQSPQLLIYRMSNLASGVPDRFSGSGSGTAFTLRISRVEAEDVGVYYCMQHLEYPFTFGSGTKLEIK
IC50 (Gi2 BRET, pH 6.5) (human CCR8 [1]): 0.019 µg/ml and 0.125 nM
IC50 (Gi2 BRET, pH 7.4) (human CCR8 [1]): 0.011 µg/ml and 0.075 nM
hCCL1 (100 nM) residual response, Protocol #2, mAb 0.08 µg/mL (human CCR8 [2]): 60%
hCCL1 (100 nM) residual response, Protocol #2, mAb 0.4 µg/mL (human CCR8 [2]): 35%
hCCL1 (100 nM) residual response, Protocol #2, mAb 10 µg/mL (human CCR8 [2]): 21%
hCCL1 (100 nM) residual response, Protocol #3, mAb 0.05 µg/mL (human CCR8 [2]): 69%
hCCL1 (100 nM) residual response, Protocol #3, mAb 0.5 µg/mL (human CCR8 [2]): 39%
hCCL1 (100 nM) residual response, Protocol #3, mAb 5 µg/mL (human CCR8 [2]): 38%
Top plateau value (% of hCCL1 100 nM) with 5 µg/mL mAb, Protocol #3 (human CCR8 [9]): 149%
binding result (pm5): binds
binding result (pm6): binds
binding result (pm8): binds
binding result (pm3): binds
% positive cells (human CCR8 [10]): 64.7%
MFI fold change to isotype ctrl (human CCR8 [10]): 5.63 fold
IC50 (read off the curve) (human CCR8 [11]): ~0.3 µg/mL

B5: 3-43 (antibody, V domains shown)
VH: QVQLQQPGAELVKPGASVKMSCKATGYTFTGYNMHWVKQTPGQGLEWIGAISPGKGDTSYNLKFKGKATLTTDKSSSTAYMQLSSLTSADSAVYYCARSGGTPFAYWGQGTLVTVSA
VL: DVVMTQTPLSLPVSLGDQASISCRSSQSLVHSNGDTYLYWYLQKPGQSPKLLIYKVSNRFSGVPDRFSGSGSGTDFTLKINRVEAEDLGVYFCSQSTHVPYTFGGGTKLEIK
IC50 (Gi2 BRET, pH 6.5) (human CCR8 [1]): 0.678 µg/ml and 4.52 nM
IC50 (Gi2 BRET, pH 7.4) (human CCR8 [1]): 3.43 µg/ml and 22.9 nM
hCCL1 (100 nM) residual response, Protocol #3, mAb 0.05 µg/mL (human CCR8 [2]): 102%
hCCL1 (100 nM) residual response, Protocol #3, mAb 0.5 µg/mL (human CCR8 [2]): 98%
hCCL1 (100 nM) residual response, Protocol #3, mAb 5 µg/mL (human CCR8 [2]): 84%
Top plateau value (% of hCCL1 100 nM) with 5 µg/mL mAb, Protocol #3 (human CCR8 [9]): 2880%
binding result (pm5): binds
binding result (pm6): binds
binding result (pm8): binds
binding result (pm3): binds
% positive cells (human CCR8 [10]): 76.2%
MFI fold change to isotype ctrl (human CCR8 [10]): 8.37 fold
IC50 (read off the curve) (human CCR8 [11]): ~0.7 µg/mL

Next, values leading:

IC50 (Gi2 BRET, pH 6.5) (human CCR8 [1]): 0.077 µg/ml and 0.514 nM
IC50 (Gi2 BRET, pH 7.4) (human CCR8 [1]): 0.068 µg/ml and 0.452 nM
hCCL1 (100 nM) residual response, Protocol #2, mAb 0.08 µg/mL (human CCR8 [2]): 94%
hCCL1 (100 nM) residual response, Protocol #2, mAb 0.4 µg/mL (human CCR8 [2]): 77%
hCCL1 (100 nM) residual response, Protocol #2, mAb 10 µg/mL (human CCR8 [2]): 31%
hCCL1 (100 nM) residual response, Protocol #3, mAb 0.05 µg/mL (human CCR8 [2]): 110%
hCCL1 (100 nM) residual response, Protocol #3, mAb 0.5 µg/mL (human CCR8 [2]): 76%
hCCL1 (100 nM) residual response, Protocol #3, mAb 5 µg/mL (human CCR8 [2]): 33%
% of internalization at 1 µg/ml mAb (HTRF) (CCR8 SNAP-tag): 139%
% of internalization at 10 µg/ml mAb (HTRF) (CCR8 SNAP-tag): 52%
binding result (pm4 [3]): binds
binding result (pm1 [4]): binds
binding result (pm5): binds
binding result (pm6): binds
binding result (pm8): binds
binding result (pm3): binds
% of labelled cells (human CCR8 [5]): 92%
% of labelled cells (human CCR8 [6]): 97%
% of labelled cells (human CCR8 [7]): 92%
IC50 (read off the curve) (human CCR8 [8]): ~0.2 µg/mL
B1: 3-79 (antibody, human IgG1, kappa, V domains shown)
VH: EVQLLESGGGLVQPGGSLRLSCAASGFTFNAYAMNWVRQAPGKGLEWVARIRSKSNDYATYYGDSVKGRFTISRDNSKNTLYLQMNSLRAEDTAVYYCVRGREAYYRYDGGYYAMDVWGQGTTVTVSS
VL: DIVMTQSPLSLPVTPGEPASISCRSSKSLLHSNGNTYLYWFLQKPGQSPQLLIYRVSNLASGVPDRFSGSGSGTDFTLKISRVEAEDVGVYYCMQHREYPFTFGQGTKLEIKR
notes: humanized, human IgG1 kappa

IC50 (Gi2 BRET, pH 6.5) (human CCR8 [1]): 0.011 µg/ml and 0.072 nM
IC50 (Gi2 BRET, pH 7.4) (human CCR8 [1]): 0.022 µg/ml and 0.148 nM
hCCL1 (100 nM) residual response, Protocol #2, mAb 0.08 µg/mL (human CCR8 [2]): 67%
hCCL1 (100 nM) residual response, Protocol #2, mAb 0.4 µg/mL (human CCR8 [2]): 55%
hCCL1 (100 nM) residual response, Protocol #2, mAb 10 µg/mL (human CCR8 [2]): 32%
hCCL1 (100 nM) residual response, Protocol #3, mAb 0.05 µg/mL (human CCR8 [2]): 86%
hCCL1 (100 nM) residual response, Protocol #3, mAb 0.5 µg/mL (human CCR8 [2]): 60%
hCCL1 (100 nM) residual response, Protocol #3, mAb 5 µg/mL (human CCR8 [2]): 42%
% of internalization at 1 µg/ml mAb (HTRF) (CCR8 SNAP-tag): 44%
% of internalization at 10 µg/ml mAb (HTRF) (CCR8 SNAP-tag): 29%
ADCC % Max lysis, NK cells Donor 3 (human CCR8 [12]): 15%
ADCC % Max lysis, NK cells Donor 4 (human CCR8 [12]): 16%
ADCC EC50, NK cells Donor 3 (human CCR8 [12]): 0.505 nM
ADCC EC50, NK cells Donor 4 (human CCR8 [12]): 0.573 nM
binding result (pm4 [13]): binds
binding result (pm5): binds
binding result (pm6): binds
binding result (pm8): binds
binding result (pwt1): binds
binding result (pm1 [14]): binds
binding result (pm2): binds
binding result (pm3): binds
% of labelled cells (human CCR8 [6]): 96%
IC50 (read off the curve) (human CCR8 [8]): ~0.03 µg/mL
B3: 3-80 (antibody, human IgG1, kappa, V domains shown)
VH: QVQLVQSGPEVVKPGASVKVSCKTSGYTFTEYTIHWVRQAPGQSLEWVGGINPNNGNTRYDQKFQGRVTITRDKSASTAYMELRSLTSEDTAVYYCARVARSSGSGPYAMDYWGQGTTVTVSS
VL: DVVMTQSPLSLPVTLGDQASISCRCSQSLLHTNGDTYLHWYLQRPGQSPRLLIYKVSNRFSGVPDRFSGSGSGTDFTLKISRVEAEDVGVYFCSQSTHVPYTFGGGTKVEIKR
notes: humanized, human IgG1 kappa

% of internalization at 1 µg/ml mAb (HTRF) (CCR8 SNAP-tag): 126%
% of internalization at 10 µg/ml mAb (HTRF) (CCR8 SNAP-tag): 111%
% positive cells (human CCR8 [10]): 75.1%
MFI fold change to isotype ctrl (human CCR8 [10]): 8.7 fold
IC50 (read off the curve) (human CCR8 [15]): ~0.7 µg/mL
B4: Ref #1 (antibody, human IgG1, V domains shown)
VH: EVQLLESGGGLVQPGGSLRLSCAASGFTFSSYGMHWVRQAPGKGLEWVSAINWNGGSTGYADSVKGRFTISRDNSKNTLYLQMNSLRAEDTAVYYCARGHHSGYDGRFFDYWGQGTLVTVSS
VL: QSVLTQPPSVSGAPGQRVTISCTGSSSNIGAGYNVHWYQQLPGTAPKLLIYTNNRRPSGVPDRFSGSKSGTSASLAISGLRSEDEADYYCAAWDASLSGWVFGGGTKLTVL
notes: benchmark from WO 2021/260210; human IgG1, produced in CHO; also called TPP-21360
